Target: STAT3 (UniProt P40763)
Experiment: co-immunoprecipitation, Flag/Myc tags, Western blot
Conditions: reference: wild-type PLSCR1-2Flag; sites Y69,Y74

Substance: PLSCR1 (from UniProt O15162) PLSCR1-Y69,74F-2Flag
- binding against the reference: weaker
